Reference: article PMC7337490, “Molecular basis of MKLP2-dependent Aurora B transport from chromatin to the anaphase central spindle”

B1: centromeric alpha-satellite consensus 40 bp (dsDNA)
DNA 1: ATTCAACTCACAGAGTTGAACCTTCCTTTTCATAGAGCAG
DNA 2: CTGCTCTATGAAAAGGAAGGTTCAACTCTGTGAGTTGAAT
B2: non-alpha-satellite 40 bp (dsDNA)
DNA 1: ATTCCATGGCACCGTCAAGGCTGAGAACGGGAAGCTTGTC
DNA 2: GACAAGCTTCCCGTTCTCAGCCTTGACGGTGCCATGGAAT

What was measured:
Settings in all cases: protein: recombinant;recombinant;recombinant; tags: N-terminal His (tag cleavage stated for complex);;His6-GST, cleaved by HRV 3C; copies: 1;1;1; label: Alexa 488 on forward strand; blunt
[1] = target: survivin;borealin 10-109;INCENP 1-80 T59E (CPI80T59E) (human;human;human, UniProt O15392;Q53HL2;Q9NQS7 1-142;10-109;1-80, ||T59E); experiment: MST; Kd not calculable per legend; 100 mM NaCl, 20 mM Tris-HCl pH 7.4, 1 mM DTT, 2 h on ice; MST 0.04 uM duplex, 0.1-200 uM protein; EMSA 0.15 pmol plasmid in 20 ul, 0.8% agarose
[2] = target: survivin;borealin 10-109;INCENP 1-80 (CPI80) (human;human;human, UniProt O15392;Q53HL2;Q9NQS7 1-142;10-109;1-80, ||); experiment: MST; 100 mM NaCl, 20 mM Tris-HCl pH 7.4, 1 mM DTT, 2 h on ice; MST 0.04 uM duplex, 0.1-200 uM protein; EMSA 0.15 pmol plasmid in 20 ul, 0.8% agarose
[3] = target: survivin;borealin 10-109;INCENP 1-80 RRKKRR (CPI80RRKKRR) (human;human;human, UniProt O15392;Q53HL2;Q9NQS7 1-142;10-109;1-80, ||R65A;R66A;K67A;K68A;R69A;R70A); experiment: MST; up to 200 uM; 100 mM NaCl, 20 mM Tris-HCl pH 7.4, 1 mM DTT, 2 h on ice; MST 0.04 uM duplex, 0.1-200 uM protein; EMSA 0.15 pmol plasmid in 20 ul, 0.8% agarose
[4] = target: survivin;borealin 10-109;INCENP 1-58 (CPI58) (human;human;human, UniProt O15392;Q53HL2;Q9NQS7 1-142;10-109;1-58, ||); experiment: as above
Sequence of survivin;borealin 10-109;INCENP 1-58 (CPI58) (O15392 whole entry, chain 1 of 3): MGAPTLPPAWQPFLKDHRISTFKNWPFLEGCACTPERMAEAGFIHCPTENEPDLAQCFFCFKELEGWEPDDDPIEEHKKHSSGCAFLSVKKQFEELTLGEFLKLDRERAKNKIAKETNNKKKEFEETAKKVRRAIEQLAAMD
Sequence of survivin;borealin 10-109;INCENP 1-58 (CPI58) (Q53HL2 10-109, chain 2 of 3): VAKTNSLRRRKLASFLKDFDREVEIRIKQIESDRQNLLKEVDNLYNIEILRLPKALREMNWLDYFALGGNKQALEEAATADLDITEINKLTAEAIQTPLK
Sequence of survivin;borealin 10-109;INCENP 1-58 (CPI58) (Q9NQS7 1-58, chain 3 of 3): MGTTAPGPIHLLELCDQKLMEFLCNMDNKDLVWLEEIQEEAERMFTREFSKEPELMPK

Sequence of survivin;borealin 10-109;INCENP 1-80 T59E (CPI80T59E) (O15392 whole entry, chain 1 of 3): as the sequence (O15392 whole entry, chain 1 of 3) above
Sequence of survivin;borealin 10-109;INCENP 1-80 T59E (CPI80T59E) (Q53HL2 10-109, chain 2 of 3): as the sequence (Q53HL2 10-109, chain 2 of 3) above
Sequence of survivin;borealin 10-109;INCENP 1-80 T59E (CPI80T59E) (Q9NQS7 1-80 T59E, chain 3 of 3): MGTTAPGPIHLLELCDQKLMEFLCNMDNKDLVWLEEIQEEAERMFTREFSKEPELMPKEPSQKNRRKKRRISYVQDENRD
Sequence of survivin;borealin 10-109;INCENP 1-80 RRKKRR (CPI80RRKKRR) (O15392 whole entry, chain 1 of 3): as the sequence (O15392 whole entry, chain 1 of 3) above
Sequence of survivin;borealin 10-109;INCENP 1-80 RRKKRR (CPI80RRKKRR) (Q53HL2 10-109, stated change not applied, chain 2 of 3): as the sequence (Q53HL2 10-109, chain 2 of 3) above
Sequence of survivin;borealin 10-109;INCENP 1-80 RRKKRR (CPI80RRKKRR) (Q9NQS7 1-80 R65A/R66A/K67A/K68A/R69A/R70A, chain 3 of 3): as the sequence (Q9NQS7 1-80 T59E, chain 3 of 3) above, with E59T, R65A, R66A, K67A, K68A, R69A, R70A counted along it
Sequence of survivin;borealin 10-109;INCENP 1-80 (CPI80) (O15392 whole entry, chain 1 of 3): as the sequence (O15392 whole entry, chain 1 of 3) above
Sequence of survivin;borealin 10-109;INCENP 1-80 (CPI80) (Q53HL2 10-109, chain 2 of 3): as the sequence (Q53HL2 10-109, chain 2 of 3) above
Sequence of survivin;borealin 10-109;INCENP 1-80 (CPI80) (Q9NQS7 1-80, chain 3 of 3): as the sequence (Q9NQS7 1-80 T59E, chain 3 of 3) above, with E59T counted along it

Binder | binding signal [1] | Kd [2] [µM] | binding result [3] | binding result [4]
B1 | ~2 fold lower affinity than CPI80 | 23.6 ± 1.6 | no binding | no binding
B2 | ~2 fold lower affinity than CPI80 | 29.7 ± 1.6 | no binding | no binding
